The source of these data is article PMC8097376 (2021).

B1: nanobody NM1228 (VHH)
VHH: DVQLVESGGGLVRPGGSLRLSCESSGRHFDIDTMGWYRQAPGKQRELVASITSEKSTVYADALKGRFTISRDIPDNNVYLQMNNLKPEDTAVYYCNAKMDPHSLDYALGNQVFWGQGSLVTVSS
B2: nanobody NM1227 (VHH)
VHH: EVQLVESGGGLVQPGGSLTLSCETSGRHFDIDDMGWYRQAPGKQRELVACITTESSTTYADAVKGRFTISRDNPDNTVYLQMTNLKPEDTAVYYCNAEMHPRSLDYALGNRDYWGQGAPVTVSS
B3: nanobody NM1222 (VHH)
VHH: EVQLVESGGGLVRPGGSLRLSCVGSGFTFSGYAINWYRQAPGKALELVAGISNAGDLTHYEEAMKGRVAISRANDKNTVYLQMDDLKPEDTAVYRCHAPGVRVGTGERNDVWGQGAQVTVSS
B4: nanobody NM1230 (VHH)
VHH: B3 VHH with E1Q, I34M, A63P, N109K
B5: nanobody NM1221 (VHH)
VHH: B3 VHH with E1D, R13Q, R19T, T28L, I34M, L57I, A73V, G104A, T105S, A116T
B6: nanobody NM1226 (VHH)
VHH: QVQLVESGGGSVQPGGSLRLSCLGSGSLDYYAIGWFRQAPGKEREGVSCIASSGDRTIYADSVKGRFTISRDYGKNTVYLQMNSLKPEDTAMYYCAALQGSYYYTGFVANEYDYWGQGAPVTVSS
B7: nanobody NM1229 (VHH)
VHH: EVQLQESGGGLVQPGESLRLSCAASGRTHDWYTMGWFRQAPGKEREFVARINWSSGMTYYADSVKGRFTISRDNPKNTVYLQMNSLTPDDTAVYYCNVHPFTSPDYWGQGTRVTVSS
B8: nanobody NM1224 (VHH)
VHH: DVQLVESGGSLVQPGGSLRLSCETSRSSLDAYAIGWFRQAPGKEREGVASISSSSMRTEYADSVKGRFTISRDNAKNTAYLDMNSLKPEDTAVYYCAAAGEYGRAWPGLDWYEFEYEGPGSPVTVSS
B9: nanobody NM1225 (VHH)
VHH: QVQLVESGGGLVQPGGSLRLSCAASGNILRVHDMGWYRQAPGKQREYVAMITHGGITNYIDSVKGRFTISRDNAKNTVYLQMNSLKPEDTAVYYCHAVLSSALNGVTETSSNWGQGTQVTVSS
B10: nanobody NM1223 (VHH)
VHH: EVQLVESGGGLVQPGGSLRLSCSASGFAFSSVSMSWVRLLPGKGTEWVAEIDRDGGNGNYEDSVKGRFTISRDNAKNTLFLQMNSLVPEDTALYYCRLGTRDHIMSGWGPGAPVTVSS

Numbering of substitutions follows the chain as printed.

In one assay the target is S1 domain of the SARS-CoV-2 spike protein (SARS-CoV-2, UniProt P0DTC2 14-681).
Experiment: not given
Regarding B1, the IC50 stood at 0.85 nM.

As to B2, half-maximal inhibition (IC50) required 3.51 nM.

Molecule B3 showed an IC50 of 27.3 nM.

In turn, B4 displayed an IC50 of 10.6 nM.

Take B5: the IC50 is 43.3 nM.

In the case of B6, the midpoint of inhibition, the IC50, lay at 1.44 nM.

B7 had an IC50 of 56.1 nM.

The target of a further assay is T1, SARS-CoV-2 spike receptor-binding domain (RBD) (SARS-CoV-2, UniProt P0DTC2 319-541).
Experiment: not given
In turn, B2 returned an IC50 of 1.65 nM.

Take B3: the IC50 stood at 5.8 nM.

The molecule B5 registered an IC50 of 10.1 nM.

B7: the IC50 turned out to be 37.8 nM.

In turn, B8 returned a 50% inhibitory concentration (IC50) of 36.6 nM.

In a further assay the target is T1, SARS-CoV-2 spike receptor-binding …. Briefly: BLI.
B1 had a koff of 0.00064 s⁻¹.

Turning to B2, the koff came out at 0.00079 s⁻¹.

On to B3, for which the koff came to 0.00294 s⁻¹.

With B4, the koff amounted to 0.00166 s⁻¹.

On to B5, for which the koff was determined as 0.00296 s⁻¹.

The molecule B6 came in with a koff of 0.00115 s⁻¹.

B7 came in with a koff of 0.00985 s⁻¹.

Consider B9, for which the koff is 0.473 s⁻¹.

For the molecule B8, the koff amounted to 0.00267 s⁻¹.

As to B10, the koff is 0.00027 s⁻¹.

For another assay the target is unchanged. Briefly: BLI. This is another data set of the same source.
Regarding B2, the Kd is 3.72 nM.

B3 displayed a Kd of 18 nM.

B5 displayed a dissociation constant Kd of 22.7 nM.

Molecule B7 registered a Kd of 53.2 nM.

In turn, B9 came in with a dissociation constant Kd of 53700 nM.
